The supplement of paper PMC7125110
± gives the standard error. For some assays here: Variants at the floor of the assay were thinned out.

B1: glmS ribozyme (parent)
chain: AUAAAAGCGCCAGAACUACAGAAAUGUAGUUGACGAGGAGGAGGUUUAUCGAAUUUUCGGCGGAUGCCUCCAAA

Legend:
Conditions in all cases: with glucosamine-6-phosphate
glucosamine-6-phosphate [1] = variants of: B1; experiment: kcat; higher = faster cleavage; RNA array
How it was run: (§1)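 Glucosamine-6-phosphate in HEPES/KCl/Mg(OAc)2 buffer, at 40 μM to 10 mM, was flowed over barcoded ribozyme variants transcribed in situ by E. coli RNA polymerase on sequenced MiSeq chips. Tracking was through a hybridised Cy3 probe at 37 °C. kobs, kcat and KM came from exponential decay fits and weighted Michaelis–Menten fits of normalised per-tile medians.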

glucosamine-6-phosphate [2] = variants of: B1; experiment: KM; higher = weaker cofactor use; RNA array
How it was run: as §1

glucosamine-6-phosphate [3] = variants of: B1; experiment: self-cleavage kobs at 2500 uM GlcN6P; higher = faster cleavage; RNA array
How it was run: as §1

glucosamine-6-phosphate [4] = variants of: B1; experiment: self-cleavage kobs at 10000 uM GlcN6P; higher = faster cleavage; RNA array
How it was run: as §1

glucosamine-6-phosphate [5] = variants of: B1; experiment: self-cleavage kobs at 160 uM GlcN6P; higher = faster cleavage; RNA array
How it was run: as §1

glucosamine-6-phosphate [6] = variants of: B1; experiment: self-cleavage kobs at 640 uM GlcN6P; higher = faster cleavage; RNA array
How it was run: as §1

glucosamine-6-phosphate [7] = variants of: B1; experiment: self-cleavage kobs at 40 uM GlcN6P; higher = faster cleavage; RNA array
How it was run: as §1

Variant | kcat (glucosamine-6-phosphate [1]) [s⁻¹] | KM (glucosamine-6-phosphate [2]) [µM] | self-cleavage kobs at 2500 uM GlcN6P (glucosamine-6-phosphate [3]) [s⁻¹] | self-cleavage kobs at 10000 uM GlcN6P (glucosamine-6-phosphate [4]) [s⁻¹] | self-cleavage kobs at 160 uM GlcN6P (glucosamine-6-phosphate [5]) [s⁻¹] | self-cleavage kobs at 640 uM GlcN6P (glucosamine-6-phosphate [6]) [s⁻¹] | self-cleavage kobs at 40 uM GlcN6P (glucosamine-6-phosphate [7]) [s⁻¹]
AUAAACGCGCCAGAACUACAGAAAUGUAGUUGACGAGGAGGAGGUUUAUCGAAAUUUCGGCGGAUGCCUCCAAA [A6C U54A] | 0.000158 ± 2.8e-05 | 6600 ± 2300 | 4.87e-05 ± 1.5e-05 | 9.38e-05 ± 1.7e-05 |  |  | 
AUAAACGCGCCAGAACUACAGAAAUGUAGUUGACGAGGAGGAGGUUUAUCGACUUUUCGGCGGAUGCCUCCAAA [A6C A53C] | 2.09e-05 ± 4.9e-07 | 1550 ± 150 |  |  | < 1e-05 | < 1e-05 | 
AUAAAGGCGCCAGAACUACAGAAAUGUAGUUGGCGAGGAGGAGGUUUAUCGAAUUUUCGGCGGAUGCCUCCAAA [A6G A33G] | < 1e-05 |  |  | < 1e-05 |  |  | 
AUAAACGCGCCAGAGCUACAGAAAUGUAGUUGACGAGGAGGAGGUUUAUCGAAUUUUCGGCGGAUGCCUCCAAA [A6C A15G] | 0.00015 ± 3.4e-06 | 2500 ± 150 | 7.37e-05 ± 1.3e-05 | 0.000121 ± 1.6e-05 |  | 3.25e-05 ± 1.4e-05 | 
AUAAACGCGCCAGAAGUACAGAAAUGUAGUCGAGGAGGAGGAGGUUUAUCGAAUUUUCGGCGGAUGCAUCCAAA [A6C C16G U31C C34G C68A] | 1.74e-05 ± 6.6e-06 |  |  |  |  |  | 
AUAAACGCGCCUGAACUACAGAAAUGUAGUUGACGAGGAGGAGGUUUAUCGAAUUUUCGGCGGAUGCCUCCAAA [A6C A12U] | 0.000292 ± 1.8e-05 | 2560 ± 310 | 0.000157 ± 1.8e-05 | 0.000227 ± 2.1e-05 |  | 5.62e-05 ± 7.4e-06 | 
AUAAACGCGCCAGUACUACAGAAAUGUAGUUGACGAGGAGGAGGUUUAUCGAAUUUUCGGCGGAUGCCUCCAAA [A6C A14U] | 1.09e-05 ± 1.1e-06 |  |  |  |  |  | 
AUAAACGCGCCAGCACUACAGAAAUGUAGUUGACGAGGAGGAGGUUUAUCGAAUUUUCGGCGGAUGCCUCCAAA [A6C A14C] | 1.13e-05 ± 5.2e-07 | 5840 ± 600 |  |  |  |  | 
AUAAAGGCGCCAGAUCUACAGAAAUGUAGUUGACGAGGAGGAGGUUUAUCGAAUUUUCGGCGGAUGCCUCCAAA [A6G A15U] | 7.69e-05 ± 9.2e-06 |  | 7.01e-05 ± 1.2e-05 | 6.82e-05 ± 6.2e-06 |  | 2.52e-05 ± 1e-05 | < 1e-05
AUAAACGCGCCAGAACUACAGAAAUGUAGUUGACGAGGAGGAGGUUUAUCGAAUUUUCGGCGGAUGCCUCCAAA [A6C] | 0.000141 ± 4.6e-06 | 2100 ± 180 | 7.95e-05 ± 1.5e-06 | 0.000115 ± 1.8e-06 | < 1e-05 | 3.13e-05 ± 1.1e-06 | 
AUAAAGGCGCCAGAACUACAGAAAUGUAGUUGACGAGGAGGAGGUUUAUCGAAUUUUCGGCGGAUGCCUCCAAA [A6G] | 0.00068 ± 9.8e-05 | 2660 ± 490 | 0.000467 ± 4.5e-05 | 0.000533 ± 2.4e-05 | 4.17e-05 ± 1.6e-06 | 0.00013 ± 2.3e-06 | < 1e-05
AUAAACGCGCCAGAACUACAGAAAUGUAGUUGACGAGGAGGAGGUUUAUCGAAUCUUCGGCGGAUGCCUCCAAA [A6C U55C] | 0.000127 ± 4e-05 |  | 3.24e-05 ± 1.2e-05 | 7.95e-05 ± 1.6e-05 |  |  | 
AUAAACGCGCCAGAAGUACAGAAAUGUAGUUGACGAGGAGGAGGUUUAUCGAAUUUUCGGCGGAUGCCUCCAAA [A6C C16G] | 1.5e-05 ± 3.9e-07 | 9790 ± 480 |  |  | < 1e-05 | < 1e-05 | < 1e-05
AUAAAGGCGCCAGAACUACAGAAAUGUAGUUGACGAGGAGGAGGUUUAUCGAGUUUUCGGCGGAUGCCUCCAAA [A6G A53G] | 0.000509 ± 6.7e-05 | 2390 ± 600 | 0.000306 ± 4.1e-05 | 0.000395 ± 4.4e-05 | 3.62e-05 ± 1.3e-05 | 9.71e-05 ± 1.5e-05 | 
AUAAAGGCGCCAGCACUACAGAAAUGUAGUUGACGAGGAGGAGGUUUAUCGAAUUUUCGGCGGAUGCCUCCAAA [A6G A14C] | 0.000105 ± 2.8e-06 | 2620 ± 210 | 5.24e-05 ± 8.1e-06 | 8.29e-05 ± 7.7e-06 |  |  | 
AUAAAGGCGCCAGUACUACAGAAAUGUAGUUGACGAGGAGGAGGUUUAUCGAAUUUUCGGCGGAUGCCUCCAAA [A6G A14U] | 0.000128 ± 4.9e-06 | 1370 ± 180 | 8.77e-05 ± 1.3e-05 | 0.000111 ± 1.1e-05 |  | 3.84e-05 ± 1e-05 | 
AUAAACGCGCCAGAACUACAGAAAUGUACUUGACGAGGAGGAGGUUUAUCGAAUUUUCGGCGGAUGCCUCCAAA [A6C G29C] | < 1e-05 |  |  |  | < 1e-05 |  | 
AUAAACGCGCCAGAACUACAGAAAUGUAGUUGACGAGGAGGAGGUUUAUGGAAUUUUCGGCGGAUGCCUCCAAA [A6C C50G] | 2.11e-05 ± 7.4e-06 |  |  |  |  |  | 
AUAAAGGCGCCUGAACUACAGAAAUGUAGUUGACGAGGAGGAGGUUUAUCGAAUUUUCGGCGGAUGCCUCCAAA [A6G A12U] | 0.000134 ± 1.7e-05 |  | 0.000155 ± 2.1e-05 | 0.000119 ± 1e-05 |  | 7.58e-05 ± 1.1e-05 | 
AUAAAGGCGCCAGAACUACAGAAAUGUAGUUGACGAGGCGGAGGUUUAUCGAAUUUUCGGCGGAUGCCUCCAAA [A6G A39C] | 0.00012 ± 4e-06 | 1580 ± 180 | 7.92e-05 ± 1.4e-05 | 0.000103 ± 8.7e-06 |  | 3.27e-05 ± 8.5e-06 | 
